Numbering of substitutions follows the chain as printed. Values belong to the binder of their own block, whether it stands above or below them.
What was measured:
4Ig-B7H3 [1] = molecular target: T1, 4Ig-B7H3 (human, UniProt Q5ZPR3 27-461, limits assumed); assay: SPR (Biacore), scFv; antigen not given
T1 construct: also called 4Ig-B73H3
T1 sequence (looked up): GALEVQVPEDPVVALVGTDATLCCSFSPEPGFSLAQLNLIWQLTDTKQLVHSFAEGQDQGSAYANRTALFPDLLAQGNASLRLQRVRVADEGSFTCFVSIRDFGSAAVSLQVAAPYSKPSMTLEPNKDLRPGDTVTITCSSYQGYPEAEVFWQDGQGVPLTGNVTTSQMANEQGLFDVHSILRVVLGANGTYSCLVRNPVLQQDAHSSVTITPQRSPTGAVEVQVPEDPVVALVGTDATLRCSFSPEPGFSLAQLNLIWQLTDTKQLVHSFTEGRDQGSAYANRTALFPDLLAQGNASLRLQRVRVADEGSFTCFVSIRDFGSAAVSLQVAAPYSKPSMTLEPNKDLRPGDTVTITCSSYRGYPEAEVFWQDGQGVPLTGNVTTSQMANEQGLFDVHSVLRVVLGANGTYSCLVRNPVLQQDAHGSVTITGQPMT
Protocol: (§1) In brief, B7H3 antigen (either 2Ig-B7H3, 4Ig-B7H3, 2Ig-B7H3-mFc, 4Ig-B7H3-mFc), was directly immobilized onto the CM5 sensor chip via […]. Reference surface was set up for nonspecific binding and refractive index changes. For analysis of the kinetics of interactions, varying concentrations of scFvs were injected at flow rate of 30 μl/min using running buffer containing 10 mM HEPES, 150 mM NaCl, 3 mM EDTA, and 0.05% Surfactant P-20 (pH 7.4). The association and dissociation phase data were fitted simultaneously to a 1:1 model by using BIAevaluation 3.2. All the experiments were done at 25° C.

[2] = molecular target: T2, 4Ig-B7H3 fused to mouse Fc (B7H3-mFc) (human, UniProt Q5ZPR3 29-466, limits assumed, biotinylated on primary amines (NHS-biotin) in the experiment of paragraph 316); assay: SPR, IgG on 4Ig-B7H3-Fc
T2 construct: Expressed in DG44 CHO cells; also called 4Ig-B7H3-Fc; 4Ig-B7H3-mFc; not shown: mouse Fc
T2 sequence (looked up): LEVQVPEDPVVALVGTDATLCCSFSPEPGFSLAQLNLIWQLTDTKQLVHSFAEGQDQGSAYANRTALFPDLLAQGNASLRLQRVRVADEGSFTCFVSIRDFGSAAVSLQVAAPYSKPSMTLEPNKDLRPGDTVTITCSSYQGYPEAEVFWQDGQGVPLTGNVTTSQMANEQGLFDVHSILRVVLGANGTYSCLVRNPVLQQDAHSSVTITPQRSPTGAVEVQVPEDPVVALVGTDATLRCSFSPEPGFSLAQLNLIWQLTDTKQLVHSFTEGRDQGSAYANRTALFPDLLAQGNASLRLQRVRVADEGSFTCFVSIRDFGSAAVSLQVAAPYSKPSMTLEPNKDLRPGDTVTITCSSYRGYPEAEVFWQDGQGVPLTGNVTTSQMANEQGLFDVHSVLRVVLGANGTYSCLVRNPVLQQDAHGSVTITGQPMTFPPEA
Protocol: (§2) In brief, B7H3 antigen (either 2Ig-B7H3, 4Ig-B7H3, 2Ig-B7H3-mFc, 4Ig-B7H3-mFc), was directly immobilized onto the CM5 sensor chip via […]. Reference surface was set up for nonspecific binding and refractive index changes. […] The association and dissociation phase data were fitted simultaneously to a 1:1 model by using BIAevaluation 3.2. All the experiments were done at 25° C.

[3] = molecular target: T3, 2Ig-B7H3 without Fc fusion (human, UniProt Q5ZPR3-2 29-245, limits assumed); assay: SPR, IgG on 2Ig-B7-H3 without Fc fusion
T3 construct: also called 2IgB7H3 (R&D)
T3 sequence (looked up): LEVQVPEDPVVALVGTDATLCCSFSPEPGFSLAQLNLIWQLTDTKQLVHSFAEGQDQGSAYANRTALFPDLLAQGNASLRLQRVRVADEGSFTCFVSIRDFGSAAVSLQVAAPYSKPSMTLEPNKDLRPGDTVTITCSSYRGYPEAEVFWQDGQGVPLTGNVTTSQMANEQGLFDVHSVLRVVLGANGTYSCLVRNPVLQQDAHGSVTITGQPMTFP
Protocol: as §2

4Ig-B7H3 [4] = molecular target: T1, 4Ig-B7H3; assay: SPR, IgG on 4Ig-B7-H3 without Fc fusion
Protocol: as §2

wild type 2Ig-B7H3-mFc [5] = molecular target: T4, wild type 2Ig-B7H3-mFc (human, UniProt Q5ZPR3-2 29-248, limits assumed); assay: SPR, IgG on 2Ig-B7H3-mFc
T4 construct: Q5ZPR3 canonical entry is the 4Ig isoform; the 2Ig form is its shorter isoform; also called 2Ig-B7H3-Fc; WT 2Ig-B7H3-Fc; not shown: mouse Fc
T4 sequence (looked up): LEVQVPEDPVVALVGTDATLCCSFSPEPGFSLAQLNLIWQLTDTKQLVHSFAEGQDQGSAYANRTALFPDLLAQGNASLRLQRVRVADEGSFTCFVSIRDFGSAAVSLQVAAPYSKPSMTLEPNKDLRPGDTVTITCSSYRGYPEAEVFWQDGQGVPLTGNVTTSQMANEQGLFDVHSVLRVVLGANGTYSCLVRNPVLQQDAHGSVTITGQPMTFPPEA
Protocol: as §2

4Ig-B7H3 [6] = molecular target: T1, 4Ig-B7H3; assay: SPR, antigen on CM5 chip
Protocol: as §1

wild type 2Ig-B7H3-mFc [7] = molecular target: T4, wild type 2Ig-B7H3-mFc; assay: SPR, antigen on CM5 chip
Protocol: as §1

[8] = molecular target: B7H3 on B7H3-positive human tumor cells (M14, LAN-1, IMR-32, HeLa) (human) (UniProt Q5ZPR3); assay: cell-binding assay of 131I-labelled antibody on LAN-1 cells
4Ig-B7H3 [9] = molecular target: T1, 4Ig-B7H3; assay: SPR (Biacore T-100), 4Ig-B7H3 on CM5 chip, scFv injected
Protocol: as §1

4Ig-B7H3 [10] = molecular target: T1, 4Ig-B7H3; assay: SPR

Kd (4Ig-B7H3 [1]): 1.7 nM
koff (4Ig-B7H3 [1]): 9.84e-05 s⁻¹
kon (4Ig-B7H3 [1]): 58800 M⁻¹ s⁻¹
B1: hu8H9 5.1 scFv (scFv)
scFv: QVQLVQSGAEVVKPGASVKVSCKTSGYTFTNYDINWVRQRPGQGLEWIGWIFPGDDSTQYNEKFKGRVTMTTDTSTSTVYMELSSLRSEDTAVYFCARQTTGTWFAYWGQGTLVTVSSGGGGSGGGGSGGGGSEIVMTQSPATLSVSPGERVTLSCRASQSISDYLYWYQQKSHQAPRLLIKYASQSISGIPARFSGSGSGSEFTLTISSLQPEDFGVYYCQNGHSFPLTFGQGTKLELKR
notes: not shown: FLAG and His tags

Kd [2]: 6.6 nM
koff [2]: 0.0452 s⁻¹
kon [2]: 6.83e+06 M⁻¹ s⁻¹
Kd [3]: 45 nM
koff [3]: 0.000607 s⁻¹
kon [3]: 13500 M⁻¹ s⁻¹
Kd (4Ig-B7H3 [4]): 33 nM
koff (4Ig-B7H3 [4]): 0.000677 s⁻¹
kon (4Ig-B7H3 [4]): 20500 M⁻¹ s⁻¹
Kd (wild type 2Ig-B7H3-mFc [5]): 7.5 nM
koff (wild type 2Ig-B7H3-mFc [5]): 0.035 s⁻¹
kon (wild type 2Ig-B7H3-mFc [5]): 4.67e+06 M⁻¹ s⁻¹
B2: hu8H9 H3L3 IgG1 (antibody, V domains shown)
VH: QVQLVQSGAEVVKPGASVKLSCKASGYTFTNYDINWVRQRPEQGLEWIGWIFPGDGSTQYNEKFKGKATLTTDTSTSTAYMELSSLRSEDTAVYFCARQTTATWFAYWGQGTLVTVSS
VL: EIVMTQSPATLSVSPGERVSLSCRASQSISDYLHWYQQKSHESPRLLIKYASQSISGIPARFSGSGSGSEFTLTINSVEPEDVGVYYCQNGHSFPLTFGQGTKLELKR

Kd (4Ig-B7H3 [6]): 34.8 nM
Kd [2]: 42.7 nM
koff [2]: 0.0239 s⁻¹
kon [2]: 560000 M⁻¹ s⁻¹
Kd (wild type 2Ig-B7H3-mFc [5]): 68.4 nM
koff (wild type 2Ig-B7H3-mFc [5]): 0.00116 s⁻¹
kon (wild type 2Ig-B7H3-mFc [5]): 17000 M⁻¹ s⁻¹
B3: hu8H9-H1L2 IgG1 (antibody, V domains shown)
VH: B2 VH with V12K, R40A, E42G
VL: B2 VL with S20T, S69T, L106I

Kd (wild type 2Ig-B7H3-mFc [7]): 0.28 nM
koff (wild type 2Ig-B7H3-mFc [7]): 1.03e-05 s⁻¹
kon (wild type 2Ig-B7H3-mFc [7]): 36700 M⁻¹ s⁻¹
Kd [3]: 0.81 nM
koff [3]: 2.24e-05 s⁻¹
kon [3]: 27800 M⁻¹ s⁻¹
Kd (4Ig-B7H3 [4]): 8.9 nM
koff (4Ig-B7H3 [4]): 0.000165 s⁻¹
kon (4Ig-B7H3 [4]): 18500 M⁻¹ s⁻¹
in vitro immunoreactivity [8]: 69%
B4: murine 8H9 (m8H9) IgG1 monoclonal antibody (antibody, V domains shown)
VH: B2 VH with V5Q, V11L, T76S, E82Q, S85R, R87T, T91S, S118A
VL: DIVMTQSPATLSVTPGDRVSLSCRASQSISDYLHWYQQKSHESPRLLIKYASQSISGIPSRFSGSGSGSDFTLSINSVEPEDVGVYYCQNGHSFPLTFGAGTKLELK
modifications: 131I-labelled in the LAN-1 immunoreactivity assay; the label is not carried by the letters.
notes: also called MAb 8H9

Kd (4Ig-B7H3 [6]): 34.8 nM
B5: hu8H9-H2L1 IgG1 (antibody, V domains shown)
VH: B2 VH with R40A, E42G, S85R, R87T
VL: B2 VL with S20T, S40P, H41G, E42Q, S43A, S69T, N76S, E79Q, L106I

Kd (4Ig-B7H3 [6]): 112 nM
B6: hu8H9-H1L1 IgG1 (antibody, V domains shown)
VH: B2 VH with V12K, R40A, E42G
VL: B2 VL with S20T, S40P, H41G, E42Q, S43A, S69T, N76S, E79Q, L106I

Kd (4Ig-B7H3 [6]): 38.6 nM
B7: hu8H9-H2L2 IgG1 (antibody, V domains shown)
VH: B2 VH with R40A, E42G, S85R, R87T
VL: B2 VL with S20T, S69T, L106I

Kd (4Ig-B7H3 [9]): 144 nM
koff (4Ig-B7H3 [9]): 0.000919 s⁻¹
kon (4Ig-B7H3 [9]): 6380 M⁻¹ s⁻¹
Kd (4Ig-B7H3 [1]): 144 nM
koff (4Ig-B7H3 [1]): 0.000919 s⁻¹
kon (4Ig-B7H3 [1]): 6380 M⁻¹ s⁻¹
B8: hu8H9 H3L3 scFv (scFv)
scFv: QVQLVQSGAEVVKPGASVKLSCKASGYTFTNYDINWVRQRPEQGLEWIGWIFPGDGSTQYNEKFKGKATLTTDTSTSTAYMELSSLRSEDTAVYFCARQTTATWFAYWGQGTLVTVSSGGGGSGGGGSGGGGSEIVMTQSPATLSVSPGERVSLSCRASQSISDYLHWYQQKSHESPRLLIKYASQSISGIPARFSGSGSGSEFTLTINSVEPEDVGVYYCQNGHSFPLTFGQGTKLELKR
notes: also called parental hu8H9 H3L3; not shown: FLAG and His tags

Kd (4Ig-B7H3 [9]): 2.7 nM
koff (4Ig-B7H3 [9]): 0.000152 s⁻¹
kon (4Ig-B7H3 [9]): 55900 M⁻¹ s⁻¹
fold affinity improvement against parental hu8H9 H3L3 scFv (4Ig-B7H3 [10]): > 50 fold
B9: hu8H9 clone S7.29 scFv (scFv)
scFv: B8 scFv with A24T, E42G, M81L, R87G, A102G, S153T, H167Y
notes: not shown: FLAG and His tags

Kd (4Ig-B7H3 [1]): 0.92 nM
koff (4Ig-B7H3 [1]): 9.52e-05 s⁻¹
kon (4Ig-B7H3 [1]): 104000 M⁻¹ s⁻¹
B10: hu8H9 3.1 scFv (scFv)
scFv: B8 scFv with A24T, E42G, G56D, A102G, S153T, H167Y
notes: not shown: FLAG and His tags

Kd (4Ig-B7H3 [9]): 5.6 nM
koff (4Ig-B7H3 [9]): 0.000143 s⁻¹
kon (4Ig-B7H3 [9]): 25400 M⁻¹ s⁻¹
B11: hu8H9 clone S7.2 scFv (scFv)
scFv: B8 scFv with V18C, A24T, E42G, G131V, S153T, S163G, H167Y
notes: not shown: FLAG and His tags

Kd (4Ig-B7H3 [9]): 1.2 nM
koff (4Ig-B7H3 [9]): 9.99e-05 s⁻¹
kon (4Ig-B7H3 [9]): 86100 M⁻¹ s⁻¹
fold affinity improvement against parental hu8H9 H3L3 scFv (4Ig-B7H3 [10]): > 50 fold
fold binding improvement against parental hu8H9 H3L3 scFv (4Ig-B7H3 [10]): > 100 fold
B12: hu8H9 clone S7.22 scFv (scFv)
scFv: B8 scFv with A24T, E42G, G56D, S88P, A102G, S153T, H167Y, S189P
notes: not shown: FLAG and His tags

Kd (4Ig-B7H3 [9]): 277 nM
koff (4Ig-B7H3 [9]): 0.00132 s⁻¹
kon (4Ig-B7H3 [9]): 4750 M⁻¹ s⁻¹
B13: hu8H9 clone S7.28 scFv (scFv)
scFv: B8 scFv with A24T, E42G, R87G, A97T, G129S, S153T, S163G, H167Y
notes: not shown: FLAG and His tags

Kd (4Ig-B7H3 [1]): 45.7 nM
koff (4Ig-B7H3 [1]): 0.000557 s⁻¹
kon (4Ig-B7H3 [1]): 12200 M⁻¹ s⁻¹
B14: hu8H9 4.1 scFv (scFv)
scFv: B1 scFv with T24A, G42E, D56G, G102A, Y167H
notes: not shown: FLAG and His tags

Kd (4Ig-B7H3 [9]): 2.2 nM
koff (4Ig-B7H3 [9]): 0.000113 s⁻¹
kon (4Ig-B7H3 [9]): 51000 M⁻¹ s⁻¹
fold affinity improvement against parental hu8H9 H3L3 scFv (4Ig-B7H3 [10]): > 50 fold
B15: hu8H9 clone S7.17 scFv (scFv)
scFv: B8 scFv with A24T, E42G, I48V, A102S, S153T, S161P, H167Y, H225Y
notes: not shown: FLAG and His tags

— patent publication US20170240637A1 (Memorial Sloan Kettering, published 2017)
